Test [1] concerns the target rhTRAIL variant D218H. As to the kind of experiment: competitive ELISA, soluble DR5-Ig varied, immobilised DR4-Ig. In general terms: ELISA stands for enzyme-linked immunosorbent assay.
For test [2], the target named is rhTRAIL variant D218Y. The test is described as above.
The target in test [3] is death receptor 5 (DR5, TRAIL-R2) on cells (UniProt O14763). As to the kind of experiment: cell-based or functional assay.
In test [4] the target is death receptor 4 (DR4, TRAIL-R1) on cells (UniProt O00220). As to the kind of experiment: cell-based or functional assay.

Four substances from US20110200552A1 can be followed below.

Sequence of WT rhTRAIL (TRAIL amino acids 114-281 preceded by a methionine) (ligand) (P50591 114-281): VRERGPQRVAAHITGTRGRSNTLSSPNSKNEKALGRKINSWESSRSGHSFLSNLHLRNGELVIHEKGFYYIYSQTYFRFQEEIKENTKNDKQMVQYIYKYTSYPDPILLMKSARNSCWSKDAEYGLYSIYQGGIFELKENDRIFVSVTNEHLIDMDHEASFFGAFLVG

With “DR5-Ig receptor chimera (from UniProt O14763 56-182) (Fc fusion)”, the fold less efficient in achieving 50% reduction of binding, against rhTRAIL WT in test [1] and in test [2] was above 9 fold in each case.

In test [3], “WT rhTRAIL (TRAIL amino acids 114-281 preceded by a methionine) (ligand)” displayed an apoptosis (Annexin V positivity) in Colo205 cells of 20 ng/mL.

rhTRAIL variant R149I (ligand): in test [4], the apoptosis (Annexin V staining) in EM-2 cells, 24 h; fold lower concentration than WT came out at 5 fold and the apoptosis (Annexin V staining) in ML-1 cells, 24 h; fold lower concentration than WT was 2 fold.

In test [4], rhTRAIL variant S215D (ligand) came in with an apoptosis (Annexin V staining) in EM-2 cells, 24 h; fold lower concentration than WT of 5 fold and an apoptosis (Annexin V staining) in ML-1 cells, 24 h; fold lower concentration than WT of 2 fold.
